B1: 1078 (protein, listed as Flavobacterium johnsoniae)
chain: MFQKKHLFFILLLASIVSAQEVHKKETNFQPTLESSKPWVYWYWMKSAYSKPGITADLEAMKQAGIAGAYLMTIKGPANPPLIDPPVLQLTPEFWDMIHWAFKEADRLGLKLAFHGADGFAVAGGPWITPEMSMQKIVWSTTEILGGKKVTSKLPVPAHYKDYYKNIATFAIPIKEYEITSQMQLPKVTTSNNTDASFLADPKKDENFKFADAGWIQYEFAQPFTCKSIVIETKGRDFQAQRLIVEVSDDGVNFRFHERMIAPRHGWQDMDFPNTHTITPVTAKYFRFVCDPKGTEPGAEDLDFAKWKQNLKVSKITLSNQSLINNYEGKSGAIWRLTPQTTEKEIPNSDAFKKSEIINISNFVDADGNLNWKAPKGKWKILRMGHTSTGHENATGGAGKGLEVDKFNPELIRFQLDHWFGEAVRSAGPELTSKVLEILHFDSWECGSQNWSSVFQTEFKKRRGYDLVEYLPVMAGIPVESADFSEKVLYDIRKTIADLVADNFYGTIAQIAKEYNVKLSAENVAPVVTSDALLHYKYVDYPSGEFWLKSPTHDKPFDMVDAISGGHIYGKDIIQAESFTALRMDWDEHPGNLKTTADRNYALGINRLFYHVFVHNPWTDRKPGMTLDDIGTFFQRDQTWWKPGKAWFDYCQRVQFQLQKGKPIIDLAVFSGEDFPSRSFVPDRLVPFIPNVFGKERLESEKIRLENEGQPTAKMPKEVTYSKNITDLSQWINPLNGYQYDSFNADVLINRAKVINGKISFEGGIEYGALFFPGSHKMAPNKMLSLASAEKILQLLKDGATIFVDEKPNLQPGVQSEADQKKWQNVIDEIWNNTNSATWKIGKGTVIKLPYLGNDFASIGISQDVYFTNLNRVDSETLAWAHRKSDTEDIYFISNQKAEKRTFDASFRILGKVPQWYNPVTDKTSALDNWKIENGRTIVSITLDANESGFVMFKEETKEILAKGRSSEFEKVQTLDENWKLQFDTEFKGPKEVVKINKLFDWSTSENDQIKYYSGTVVYKKEFIWKGKDSSKTWLDLGEISNIAEIKINGKDCGALWTFPFKTDISKALQKGKNTIEIKVTNTWANRLIGDQKLPKEERLTWTTAPFRLEGEPLLKAGLLGPVIIVKEK
B2: 1040 (protein, listed as Rhodopirellula baltica)
chain: MNEDGWQDRRQLPRFSWIRLAKGRSAELSSIPVRPLKMLLSILFLTVITVAASSSVSALEPQRLRCEYLENPTGIDAARTRLSWQVTSDQRGQSQIAYRLLVASSEEQLGSGVGDLWDSGKVKSDQTLFVEYAGKPLSSRQECFWKVQVWDGAGNATESEVASWSMGLLDQSDWSAEYISYRDDSPIHTDLSTLHLPAARQYRKEFSASKSIKRATVYATALGIYELHLNGQRVGDASFAPGWTDYRKRAYYNTYDVTNLVREGDNAIGAWVADGWYSGYVGFGLLTGMGPEKNGRSTYGKTPSFMSQLEIEFEDGTKQTIGTDTTWKVTGEGPIQEADLLMGESYDARREMVGWSEPGFDHDHWDDAILAKQNGQVTAAFYEFRNPTTTGAGVKKVGEQRDFGFKRPELEAFPGVPVRVTQEIPAKTVSKLEPGTFVFDLGQNFAGTIRLKIKGREGERIQLRYGEMLHPDGRLMTENLRKARATDYYTCKGNPDGEFYQPRFTFHGFQFVEVKRLSDSSEDAGKATDSQNVQTPPLDMVTGLVLHSDTPMASTFECSDPMVNQLFKNVLWTQRANFLDLPTDCPQRDERMGWTGDAQAYVATAAYNADIGAFYTKWLRELMESQRPSGAFPGYAPYPFQHGWDFGTAWADAGVICPWTIWQFYGDTRVIDDCWEPMTRFMRWRKQTSVNDLGVSHGNAWGDWLSQGEETPLDYIDTVYFAISARMMAEMAEATGRDEEAKLYREQRAATQAAFQAKYLNEDGSITVRTQTAQALALFADLVPAEQREATGKYLAKRLSENGNHMATGFLGTRPLLPVLSGSGQHDLATFLLQSREFPSWGYEISNGATTIWERWDSYTKEDAFGRHNAAMNSFSHYAFGAVCEWMFATLAGIQSDGPGFKRIVIRPTPPSPGSNAMHEPINWVKASYESIRGTIRSEWKMVDGRFHLNVTIPANTTATVYLPTNDANSITESGNALADTANVSLLRKETNVVALTVHSGSYEFLASSGIVPAKVSLKSSEPKDNSINPGEIDLTDATKLESWDFRNPQDLAKWGERKSVDIEQRNGSAYLVATGDDSQMAVRMTKPLEGKLVIELRASPSQNSTSQFYWAIPGRGFNGQQQTKRLLRQSDAVNAYLFAIPDALTVGKLRFDPFATYDEYANAGEMMIESISIYRLVD
B3: 1050 (protein, listed as Streptomyces bottropensis)
chain: MNNAPYDLRIDTGGDQFAVSGPAPRLSWKPPSDTGHPAGYELECTVDGDAQPALRVAPGRHRFLPWPWAALGSGRQVEWRVRADGPGGPTPWSEWNAFEVGLLDEDWQARWISPAESGDPGYGKRPAHTLTARFEVRAGVRSARLYATALGLYEAYVNGERAGTAELSPGSTSYDRTLHAQASDVTAAVRAGGNLVEIVLSDGWYRGQVGAFRLPAGWGTVLGARAELHIAYEDGSRQVVRSDETWTSTRSAITRADLMDGQSTDFRAGRDTEQPVLVDRVEAAAIDWSPAPPVRVVASRPAQSVKQLRDGLWIADFGQNASGRLAVGDLGPAGTRTVIDYGEHVGPDGDLTTAHLDSSRPGEEPIPFVQRDEVVSMGRGETFEPRHTVHGFQYARIRRDGAPLDPASLTMRVVHTDLRRAGSFACSDDDLNRLHEIADWSFRGNAVDVPTDCPTRERLAWTGDYQVFAPTATRLYDVLGFSRKWLRSVRDDQLPDGRIANFSPDGRRIKHHLDDQFAMMTGSAGWGDAIVAVPWELYQSYGDQEILAENWEAMVRWVEWALRTARTARHHSRRERSAEPRPHERYLWDGSFHWGEWTEPRTKTADGTRIDPVKTDPVAWFMADKGEVGTAFLYRSTSTLADVARVLGRTEDAARYAETAEHVRDAWRTEFLTPDGRTTGDTQAGYVRALSLGLVPAELRPAAAARLVELIRSAGTHLGTGFLATGDLLPVLADTGHTDMAYELLLRRTAPSWLYMLDHGATTIWEDWEGIDENGDAHDSLNHYSKGAVIRFLHTHTLGLRQAPGSVAWESVEVAPVPHPSLTWARGTHESPQGTIAVEWRTTGDELTLAVDVPPATTARVVFPDGTTETATTGTFRATRRITCASSARSARAPGDEPLVRSEGATD
B4: 995 (protein)
chain: MILLGALSLASSTFAQTWIWYPGDYEIWLGNQMNNRRTERGAFFPPFWKTDSHYVVVEFSKVLNLSEPEEVFIAAEGTYNVKLDGKLQFGMPETLLLPAGKHSLNIKVWNQATPPTIYVKGKTVNSDSSWRVTYEDKEWIDESGKASDTSATIYMDAGCWNFDGATQRPSQFSLMREPQQPVAKTEQPEGGILYDFGKETFGFITLKNLSGKGKIDLYYGESPEEAKDKAYCETLDKLLLEPGQITDLAIRSTSPLHHSDNEYTLENSKAFRYVYITHEPEVQIGEVSMQYEYLPEEYRGNFRCNDEELNCIWEVGAYTMHLTTREFFIDGIKRDRWVWSGDAIQSYLMNYYLFFDSESVKRTIWLLRGKDPVTSHSNTIMDYTFYWFLSVYDYYMYSGDRHFVNQLYPRMQTMMDYVLGRTNKNGMVEGMSGDWVFVDWADGYLDKKGELSFEQVLFCRSLETMALCADLVGDKDGQQKYEKLASALKAKLEPTFWNNQKQAFVHNCVDGRQSDAVTRYANMFSVFFDYLNADKQQAIKQSVLLNDEILKITTPYMRFYELEALCALGEQETVMKEMKAYWGGMLKAGATSFWEKYNPEESGTQHLAMYGRPYGKSLCHAWGASPIYLLGKYYLGVKPTKEGYKEFAVSPVLGGLKWMEGTVPTPNGDIHVYMDNKTIKVKATEGKGYLTIQSRRQPKANMGTVEKVSEGVWRLWIDSPEERIVTYRL
modifications: Bacteroides thetaiotaomicron

How the values were obtained:
Format in all cases: biochemical, Quillaja saponaria
[1] = Experiment 6-1: specificity of rhamnosidases towards other rhamnose residues (C3 saccharide rhamnose, C28 saccharide rhamnose); settings: TBE 2%, pH 7.5, 30 degC, 18 h; LCMS/MS; negative controls 0.18, 0.17
[2] = Experiment 6-1: screening of rhamnosidases for derhamnosylation of saponins in treated bark extract (2%), QS-17 2310 to QS-18 2164 (PAR %); settings: TBE 2%, pH 7.5, 30 degC, 18 h; TIC peak area ratio percent, LCMS/MS; negative controls 3.061, 2.429
[3] = Experiment 6-1: screening of rhamnosidases for derhamnosylation of saponins in treated bark extract (2%), QS-17 2296 to QS-18 2150 (PAR %); settings: TBE 2%, pH 7.5, 30 degC, 18 h; TIC peak area ratio percent of rhamnosylated starting saponin to derhamnosylated product, LCMS/MS; negative controls 4.876, 5.225
[4] = Experiment 6-1: screening of rhamnosidases for derhamnosylation of saponins in treated bark extract (2%), desglucosyl-QS-17 2134 to QS-21 1988 (PAR %); settings: TBE 2%, pH 7.5, 30 degC, 18 h; TIC peak area ratio percent, LCMS/MS; negative controls 2.719, 2.158

Molecule | ratio PP/QS-21 [1] | Peak57 (PAR %) [2] [%] | QS-17 (PAR %) [3] [%] | Peak75 (PAR %) [4] [%]
B1 | 0.16 | 2.788 | 5.218 | 2.153
B2 | 0.18 | 3.084 | 5.244 | 2.372
B3 | 0.17 | 2.305 | 5.251 | 2.528
B4 | 0.17 | 3.002 | 5.223 | 2.545

Source: US20240026407A1, “MODIFICATION OF SAPONINS” (GLAXOSMITHKLINE BIOLOGICALS SA, priority 2020, published 2024)
